The values that follow are results of earlier work, collected in PMC10823516.

The target in the data set is HER2 ECD (Homo sapiens) (UniProt P04626).

The Kd is the equilibrium constant for the complex coming apart. Consider Trastuzumab Fab Fab, for which the Kd was 2 nM.
